Measured values taken from patent US20020068814A1.
Read-outs that look alike come from different tables or passages of the source. No end group written: not given here.

Columns and labels:
[1] = target: CGRP receptor of pig coronary artery (pig); test: displacement of 125I-[His10]-h-αCGRP from pig coronary artery membranes
[2] = target: CGRP receptor of pig coronary artery (pig); test: cell-based or functional assay
[3] = target: CGRP receptor of pig coronary artery (pig); test: displacement of 125I-[His10]-h-αCGRP from pig coronary artery membranes; remark: listed apart in the source

IC50 [1] [nM] | IC50 [3] [nM] | Molecule | further results
0.22 | – | dibenzyl-h-α-CGRP(8-37) (peptide) | –
0.27 | – | N-α-benzoyl-h-α-CGRP (8-37) (peptide) | –
– | – | h-α-CGRP (8-37) (peptide) | KB from inhibition of h-α-CGRP-induced relaxation of pig coronary artery rings (Schild analysis) [2]: 970 nM
1.58 | – | N-α-benzyl-h-α-CGRP (8-37) (peptide) | –
– | 0.73 | VTHRLAGLLSRSGGMVKSNFVPTNVGSKAF (peptide, UniProt P10092 89-118, looked up, Calcitonin gene-related peptide 2 N,N-dibenzyl) [dibenzyl-h-β-CGRP(8-37)] | –
– | 3.62 | VTHRLAGLLSRSGGMVKSNFVPTNVGSKAF (peptide, UniProt P10092 89-118, looked up, Calcitonin gene-related peptide 2 N-alpha-benzyl) [N-α-benzyl-h-β-CGRP (8-37)] | –
– | 0.63 | VTHRLAGLLSRSGGMVKSNFVPTNVGSKAF (peptide, UniProt P10092 89-118, looked up, Calcitonin gene-related peptide 2 N-alpha-benzoyl) [N-α-benzoyl-h-β-CGRP (8-37)] | –
– | 20.6 | VTHRLAGLLSRSGGMVKSNFVPTNVGSKAF (ends and bridges not checked) [h-β-CGRP (8-37)] | –
